Test results reported in article PMC3905715 (Nature Communications, 2013).

B1: mouse Rspo2 Fu1–Fu2 (mRspo2Fu1–Fu2, N37 or I39-G144), His10 [mouse] / mouse ZNRF3 ectodomain (K53-L205), biotinylated, immobilised for SPR [modified: biotin at the C-terminal BirA recognition sequence; biotin at the C-terminal BirA … (parent complex)
chain 1: ICKGCLSCSKDNGCSRCQQKLFFFLRREGMRQYGECLHSCPSGYYGHRAPDMNRCARCRIENCDSCFSKDFCTKCKVGFYLHRGRCFDECPDGFAPLDETMECVEG
chain 2: KETAFVEVVLFESSPSGDYTTHTTGLTGRFSRAGAMLSAEGEIVQMHPLGLCNNNDEEDLYEYGWVGVVKLEQPELDPKPCLTVLGKAKRAVQRGATAVIFDVSENPEAIDQLNQGSEDPLKRPVVYVKGADAIKLMNIVNKQKVARARIQHL

Variants of: B1
Test: SPR

Kd | Variant
5600 nM | chain 2 Q45E
1500 nM | chain 2 M46T

Variants of: B1
Test: SPR
Remark: another data set of the same source

Kd | Variant
680 nM | chain 2 E57K
